For the assay, the target named is T1, murine Class II MHC molecules on wild-type C57BL/6 mouse B cells (mouse, UniProt P14434 24-256; P14483 28-265).
T1 construct: whole, on cells; Endogenous MHC class II on B cells immobilised on streptavidin beads through biotinylated anti-CD19; also called mouse MHC class II
T1 sequence (MHC II alpha, looked up): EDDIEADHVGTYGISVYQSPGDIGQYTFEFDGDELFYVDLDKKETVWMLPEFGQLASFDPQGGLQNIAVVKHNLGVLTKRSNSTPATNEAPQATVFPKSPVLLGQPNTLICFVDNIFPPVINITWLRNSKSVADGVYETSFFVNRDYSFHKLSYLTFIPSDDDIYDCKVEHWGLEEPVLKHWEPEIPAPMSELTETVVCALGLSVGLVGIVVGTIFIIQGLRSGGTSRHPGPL
T1 sequence (MHC II beta, looked up): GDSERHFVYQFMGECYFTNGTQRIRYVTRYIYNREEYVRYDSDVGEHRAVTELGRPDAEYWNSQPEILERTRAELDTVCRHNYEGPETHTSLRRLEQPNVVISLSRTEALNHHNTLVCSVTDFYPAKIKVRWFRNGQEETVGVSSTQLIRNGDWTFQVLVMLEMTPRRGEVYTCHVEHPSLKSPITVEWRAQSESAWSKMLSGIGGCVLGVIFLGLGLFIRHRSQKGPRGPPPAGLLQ
Nature of the assay: B cell-red blood cell binding assay: B cells on magnetic beads, bound red cells detected by anti-hemoglobin immunoblot. Here is the method: FIG. 25 is a diagram showing conjugation of single domain antibody to engineered red blood cells and cell type-specific targeting. (A) Mouse mature red blood engineered to contain 3G-myc-GPA on the cell surface were incubated with. Sortase with or without VHH7-LPETG (SEQ ID NO: 44): a single domain antibody with binding specificity for mouse MHC class II molecules and sortase motif complementary to 3G. […] (B) Either wild type mouse B cells (expressing MHC class II) or B cells derived from MHC class II knock-out mice were immobilized on magnetic streptavidin beads via biotinylated α-CD19 antibody, incubated with 3G-myc-GPA red blood cells or red cells that contained sortase-labeled VHH7-LPETG (SEQ ID NO: 44)-myc GPA on their surface, and washed. Immobilization of B cells in all experimental set-ups was tested by presence of CD19 in α-CD19 immunoblot and binding between B cells and red blood cells was evaluated by the presence of hemoglobin in the α-hemoglobin immunoblot. (C) Schematic for experiment shown in (B); LPETG: (SEQ ID NO: 44).
A B cell—red blood cell binding assay was performed as follows. B cells were isolated from either wild-type C57BL/6 mice or mice knock-out for MI-IC class II using Dynabeads Mouse CD43 (Untouched B cells) (Life Technologies) according to manufacturer's recommendations. […]

The values below come from patent US20200069736A1 (WHITEHEAD INSTITUTE FOR BIOMEDICAL RESEARCH, published 2020).

B1: 3G-myc-hGPA on the surface of mouse red blood cells, not labeled with VHH7 (other, human, not shown: small tags and cut ends)
chain (part 1 of 2): GGG
chain (part 2 of 2): LSTTEVAMHTSTSSSVTKSYISSQTNDTHKRDTYAATPRAHEVSEISVRTVYPPEEETGERVQLAHHFSEPEITLIIFGVMAGVIGTILLISYGIRRLIKKSPSDVKPLPSPDTDVPLSSVEIENPETSDQ
notes: mature; also called 3G-myc-GPA red blood cells; unmodified red cells
Regarding B1, the binding result is reported as “no binding”.
